Key:
[1] = target: the molecule itself; test: native gel or EMSA; endpoint polymerisation: 0.1 mg/ml heated for 4 h (55°C, or 45-63°C) without antibody during heating; bis-Tris non-denaturing PAGE, Coomassie; polymerisation read as loss of the monomer band
[2] = target: T1, α1-antitrypsin, plasma-derived wild-type (M) (UniProt P01009 25-418); test: progress curves of intrinsic protein fluorescence (peptide incorporation) + native gel or EMSA; as a5, in the presence of mAb4B12; details: both partners purified
T1 construct: alpha1-antitrypsin, wild-type 'M' allele, plasma-derived; also called α1-AT; α1-ATWT; source: plasma-derived

[3] = target: α1-antitrypsin, plasma-derived wild-type (M) (UniProt P01009); test: as above

B1: α1-AT_(79-306), disulphide variant Gly79Cys/Leu306Cys (natural protein, UniProt P01009 25-418, looked up)
chain: EDPQGDAAQKTDTSHHDQDHPTFNKITPNLAEFAFSLYRQLAHQSNSTNIFFSPVSIATAFAMLSLGTKADTHDEILECLNFNLTEIPEAQIHEGFQELLRTLNQPDSQLQLTTGNGLFLSEGLKLVDKFLEDVKKLYHSEAFTVNFGDTEEAKKQINDYVEKGTQGKIVDLVKELDRDTVFALVNYIFFKGKWERPFEVKDTEEEDFHVDQVTTVKVPMMKRLGMFNIQHSKKLSSWVLLMKYLGNATAIFFLPDEGKLQHLENELTHDIITKFLENEDRRSASLHLPKLSITGTYDLKSVLGQCGITKVFSNGADLSGVTEEAPLKLSKAVHKAVLTIDEKGTEAAGAMFLEAIPMSIPPEVKFNKPFVFLMIEQNTKSPLFMGKVVNPTQK
modifications: disulphide 79-306 present in ~90% of molecules
notes: alpha1-antitrypsin, 'M' allele, engineered disulphide between helix C and the C-terminus of helix I, on the Cys232Ser background; also called 79-306 double mutant; source: E. coli XL-1 blue, pQE-30-based plasmid, purified
- binding result [1]: binds

B2: 11-mer RCL peptide Ac-SEAAASTAVVI-NH2 (peptide)
peptide: Ac-SEAAASTAVVI-NH2
notes: model peptide corresponding with the reactive centre loop (RCL) of anti-thrombin; source: synthetic peptide
- fold increase in the rate of peptide incorporation with mAb4B12 against the non-antibody-bound control [2]: 2.5 fold

Binder: Ac-FLAA-NH2 [4-mer peptide Ac-FLAA-NH2]
- fold increase in the rate of peptide incorporation with mAb4B12 against the non-antibody-bound control [3]: 1.8 fold

Source: article PMC5264506, “An antibody that prevents serpin polymerisation acts by inducing a novel allosteric behaviour” (Biochemical Journal, 2016)
